# Assay results: the supplement of paper PMC12764529
# ± gives the half width of the 95% confidence interval.
# What was measured:
# [1] = folding stability dG unfold from trypsin proteolysis; higher = more stable
# Method in brief: (§1)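 K50 was inferred by Bayesian fitting of sequencing counts obtained after protease digestion of designed mini-proteins. Unfolding free energy was derived by comparison with a sequence-predicted unfolded-state K50 and a shared folded-state K50, for each protease or both combined. The mini-proteins were under 80 residues, had no cysteine, were carried in a PA-tagged cDNA display construct, and were kept only if AlphaFold2 dimer inter-PAE exceeded 15.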
# [2] = folding stability dG unfold from chymotrypsin proteolysis; higher = more stable
# Method in brief: as §1
# [3] = folding stability dG unfold (combined trypsin and chymotrypsin); higher = more stable
# Method in brief: as §1
Sequence,folding stability dG unfold [1] [kJ/mol],folding stability dG unfold [2] [kJ/mol],folding stability dG unfold [3] [kJ/mol]
SAGGSAGGSAGKKKLTVTVKKKKPAKEKKKVKTKVVKEKKLELSEEELKKLLDELKELLESAGGSAGGSAGG [r11_418_TrROS_Hall],2.61 ± 0.331,-1.87 ± 0.586,1.34 ± 0.669
SAGGSAGGSAGKKLKPFKVVEVKEPVKEGDVIEVENEATGELYRFTVVNGEIKIEKVKLDSAGGSAGGSAGG [r11_94_TrROS_Hall],0.939 ± 0.222,1.85 ± 0.879,1.53 ± 1.21
SAGGSAGGSAGKKPPKVKVLELTFTLEDGYKVTVRLVENEDGELFLEIRIEPLPELPEEKSAGGSAGGSAGG [r11_998_TrROS_Hall],7.48 ± 0.669,14 ± 0.586,12.3 ± 0.544
SAGGSAGGSAGKKPPVYRLVVENEDGEKYEFEFKSLEDLKAALESEEVRKKIKKVKIEKVSAGGSAGGSAGG [r11_1047_TrROS_Hall],8.81 ± 0.377,12.7 ± 0.46,10.9 ± 0.628
SAGGSAGGSAGKKSYVLIKVKNPKTKETHTIVVPEENLEEVLKALASQPNVKVVDIERFPSAGGSAGGSAGG [r11_692_TrROS_Hall],15.3 ± 0.795,17.2 ± 0.272,16.5 ± 0.502
SAGGSAGGSAGKKVKISLILIAKSPEEAEEAAKAIKEAFGSEDVEVDIIEIPAKLGPGKLSAGGSAGGSAGG [r17_285_TrMRF],1.33 ± 0.301,1.06 ± 0.502,1.58 ± 1.09
SAGGSAGGSAGKKYKVKVILQPKGEDKPLEIEIEVESLEEAKELLEKAFPDTRIRIDVIESAGGSAGGSAGG [r17_428_TrMRF],8.33 ± 0.41,12.3 ± 0.368,10.8 ± 0.753
SAGGSAGGSAGKLPEGMKMEVRPKTIFNEDGYMIKITIIRAPDPNILAINIEIIPPGDPISAGGSAGGSAGG [r11_338_TrROS],8.52 ± 0.502,7.89 ± 0.586,8.94 ± 1
SAGGSAGGSAGKLRVRIPPRLRERLRKRKRVRLRLRVEEREVRDEDGNLRRVRRLEIELESAGGSAGGSAGG [r11_113_TrROS_Hall],3.43 ± 0.628,8.51 ± 0.795,5.95 ± 0.711
SAGGSAGGSAGKNWFFRIKIKYPNGEERTIYIPGTLDEIKEELPGPIKNIDIEPMPAEDMSAGGSAGGSAGG [r11_596_TrROS],4.41 ± 0.188,7.38 ± 0.418,6.37 ± 0.326
SAGGSAGGSAGKPEFELIAKIEVNGKTYYILRNKETGEYLIYDLDTGKKYTIRKDDPNLLSAGGSAGGSAGG [r11_1007_TrROS_Hall],10.3 ± 0.669,12.3 ± 0.276,11.6 ± 1.42
SAGGSAGGSAGKPEIEMEIETRTVRLPDGYLLRFSRMRITLPDGSKFEFLSVEIIRLEDLSAGGSAGGSAGG [r17_312_TrROS_Hall],16.2 ± 1.3,23.3 ± 0.586,22.5 ± 1.51
SAGGSAGGSAGKPKKPKLVKVKITLPNGEKKEIITEDVEEVIKEINEEFGAIKIEVEEIKSAGGSAGGSAGG [r17_508_TrMRF],11.2 ± 0.502,11.7 ± 0.586,11.5 ± 0.711
SAGGSAGGSAGKPKTKTITLTLLVYDEETGEFYRIEARIEINEDGSITIEEKIEKLPLKPSAGGSAGGSAGG [r11_941_TrROS_Hall],11.7 ± 0.544,17.4 ± 0.418,16.3 ± 0.502
SAGGSAGGSAGKPKTLEVEMLVLDPETRRLYRVRMEIVLDPEDEGKLTIRLEIEELELPDSAGGSAGGSAGG [r17_241_TrROS_Hall],14.3 ± 0.339,18.8 ± 0.402,17.8 ± 0.586
SAGGSAGGSAGKPKTVEIEVTNEDGSKYKAKVVEVDEEKGYVLIKITNPDGSEQTILIKLSAGGSAGGSAGG [r11_742_TrROS_Hall],7.59 ± 0.251,12.4 ± 0.138,10.9 ± 0.418
SAGGSAGGSAGKPKVKKITLKNPATGETVEAEVVEVDGYLVVRVRNKDDPEKTETFVFKLSAGGSAGGSAGG [r17_73_TrROS_Hall],9.07 ± 0.213,10.8 ± 0.205,10.4 ± 0.502
SAGGSAGGSAGKPVLKLTVTLPNGLTVTVTINPDGEITVEIRPLPPPPPPVRTYSDEELKSAGGSAGGSAGG [r11_1015_TrROS_Hall],9.58 ± 0.795,11.5 ± 0.669,8.77 ± 1.3
SAGGSAGGSAGKPVTLTDANGTPYSVSQVTTDPNSATVTATFTSPTSSTTHTATYPVTPASAGGSAGGSAGG [r11_290_JUSTAS],4.3 ± 0.192,3.05 ± 0.544,3.31 ± 0.586
SAGGSAGGSAGKRRIYILGMDTVQVAEYLRDTGPDIKVEVFNPGQPMEEFQDNYDIVIFVSAGGSAGGSAGG [r17_225_TrROS],6.67 ± 0.146,9.75 ± 0.418,8.55 ± 0.669
